Assay [1] concerns the target T1, recombinant human VISTA (His-tagged) (human, UniProt Q9H7M9 33-194).
T1 construct: bought soluble protein (Sino Biological); also called hVISTA; human VISTA polypeptide
Nature of the assay: ELISA, plate coated with human VISTA.

Assay [2] concerns the target T1, recombinant human VISTA (His-tagged). Nature of the assay: antigen-binding ELISA; HMBD-002 in F5, day 20 at 40°C.
Assay [3] has the same target. The assay is described as follows: antigen-binding ELISA; HMBD-002 in F8, day 30 at 40°C.
The target in assay [4] is T2, human B7H3 (human, UniProt Q5ZPR3 29-461, limits assumed).
T2 construct: also called CD276
T2 sequence (looked up): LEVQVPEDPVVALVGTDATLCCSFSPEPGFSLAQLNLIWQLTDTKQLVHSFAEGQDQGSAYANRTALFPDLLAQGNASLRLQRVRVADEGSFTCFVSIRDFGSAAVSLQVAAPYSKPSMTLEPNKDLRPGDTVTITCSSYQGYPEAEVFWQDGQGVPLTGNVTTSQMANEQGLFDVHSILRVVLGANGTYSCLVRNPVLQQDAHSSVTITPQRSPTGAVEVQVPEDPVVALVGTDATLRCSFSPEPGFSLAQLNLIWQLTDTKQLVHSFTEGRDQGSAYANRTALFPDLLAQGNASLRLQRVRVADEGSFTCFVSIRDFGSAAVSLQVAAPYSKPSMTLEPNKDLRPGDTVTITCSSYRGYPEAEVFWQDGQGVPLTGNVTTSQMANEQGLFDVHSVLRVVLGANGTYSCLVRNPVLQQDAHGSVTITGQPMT
The assay is described as follows: ELISA, plate coated with human B7H3, antibody titrated.
Method: (§1) 384-well plates were coated with 1 μg/ml of target antigen diluted in PBS for 16 hrs at 4° C. […] After washing, plates were developed with colorimetric detection substrate 3,3′,5,5′-tetramethylbenzidine (Turbo-TMB; Pierce) for 10 min.

Assay [5] deals with T1, recombinant human VISTA (His-tagged). Nature of the assay: antigen-binding ELISA; HMBD-002 in F7, day 20 at 40°C.
The target of assay [6] is T3, recombinant mouse VISTA (His-tagged) (mouse, UniProt Q9D659 33-191).
T3 construct: also called murine VISTA; mVISTA
T3 sequence (looked up): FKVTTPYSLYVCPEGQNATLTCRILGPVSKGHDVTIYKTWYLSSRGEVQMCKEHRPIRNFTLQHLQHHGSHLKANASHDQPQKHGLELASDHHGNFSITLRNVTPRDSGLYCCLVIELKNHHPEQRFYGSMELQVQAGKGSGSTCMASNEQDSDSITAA
The assay is described as follows: ELISA, VISTA-HIS protein coated; ELISA, mouse VISTA-HIS.
Method: as §1

Assay [7] has as its target T1, recombinant human VISTA (His-tagged). Nature of the assay: ELISA on coated human VISTA, antibody diluted in buffer of pH 5.5.
Method: as §1
The target is the same in assay [8]. Nature of the assay: antigen-binding ELISA; HMBD-002 in F6, day 20 at 40°C.
The target of assay [9] is T4, rat VISTA expressed on cells (rat, UniProt A0ABK0L5H3 33-310).
T4 construct: whole, on cells; also called rat VISTA on HEK293T cells; VISTA on rat CD11b+ myeloid cells
T4 sequence: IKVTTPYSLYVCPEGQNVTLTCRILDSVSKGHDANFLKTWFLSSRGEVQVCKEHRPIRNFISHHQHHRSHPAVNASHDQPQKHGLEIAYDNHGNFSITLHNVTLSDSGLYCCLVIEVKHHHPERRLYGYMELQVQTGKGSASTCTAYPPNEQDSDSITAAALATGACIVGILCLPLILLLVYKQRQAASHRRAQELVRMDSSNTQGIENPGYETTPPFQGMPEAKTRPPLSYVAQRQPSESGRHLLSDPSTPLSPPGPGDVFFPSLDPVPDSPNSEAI
The assay is described as follows: flow cytometry, HEK293T cells expressing the VISTA ortholog.
Method: (§2) To identify myeloid cells, PBMCs were further incubated with CD45 FITC and CD11b PE. Cells were washed again and resuspended in 200 μL of FACS flow buffer (PBS with 5 mM EDTA) for flow cytometric analysis using MACSQuant 10 (Miltenyi). After acquisition, all raw data were analyzed using Flowlogic software. Cells were gated using forward and side scatter, and the percentage of positive cells was determined.

Assay [10] concerns the target T5, human VISTA expressed on cells (human, UniProt Q9H7M9 33-311).
T5 construct: also called HEK293 VISTA O/E; HEK293T or HEK293-6E cells overexpressing human VISTA
The assay is described as above.
Method: as §2

Assay [11] addresses T6, mouse VISTA expressed on cells (mouse, UniProt Q9D659 33-308).
T6 construct: whole, on cells; also called murine VISTA on transfected cells; VISTA on mouse CD11b+ myeloid cells
T6 sequence (looked up): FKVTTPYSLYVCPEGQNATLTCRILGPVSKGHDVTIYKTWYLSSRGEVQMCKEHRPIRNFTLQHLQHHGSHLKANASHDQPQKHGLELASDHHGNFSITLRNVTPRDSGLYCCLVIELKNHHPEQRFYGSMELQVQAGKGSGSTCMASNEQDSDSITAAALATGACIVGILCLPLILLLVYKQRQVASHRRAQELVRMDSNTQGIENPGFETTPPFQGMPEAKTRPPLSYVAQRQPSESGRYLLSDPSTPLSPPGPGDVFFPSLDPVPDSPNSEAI
Described as above.
Method: as §2

In assay [12] the target is T1, recombinant human VISTA (His-tagged). Nature of the assay: antigen-binding ELISA; HMBD-002 in F9, day 10 at 40°C.
For assay [13] the target is unchanged. Nature of the assay: antigen-binding ELISA; HMBD-002 in F2, day 20 at 40°C.
Assay [14] shares this target. Nature of the assay: antigen-binding ELISA; HMBD-002 in F3, day 10 at 40°C.
Assay [15] addresses T2, human B7H3. The assay is described as follows: ELISA, target protein coated, A450 against log M of antibody.

B1: anti-VISTA clone V4-C26 IgG1 (antibody)
heavy: not shown
light: EIVLTQSPATLSLSPGERATLSCRASSSVGYIHWYQQKPGQAPRPIIYTTSNRATGIPARFSGSGSGTDNTLTISSLEPEDSAVYYCQQWSSYPPITFGGGTKLEVKRTVAAPSVFIFPPSDEQLKSGTASVVCLLNNFYPREAKVQWKVDNALQSGNSQESVTEQDSKDSTYSLSSTLTLSKADYEKHKVYACEVTHQGLSSPVTKSFNRGEC
As to B1, the concentration for a half-maximal effect (EC50 (read off the curve)) in assay [1] is approximately 0.01 nM.

B2: V4-C26 hIgG4 (antibody)
heavy: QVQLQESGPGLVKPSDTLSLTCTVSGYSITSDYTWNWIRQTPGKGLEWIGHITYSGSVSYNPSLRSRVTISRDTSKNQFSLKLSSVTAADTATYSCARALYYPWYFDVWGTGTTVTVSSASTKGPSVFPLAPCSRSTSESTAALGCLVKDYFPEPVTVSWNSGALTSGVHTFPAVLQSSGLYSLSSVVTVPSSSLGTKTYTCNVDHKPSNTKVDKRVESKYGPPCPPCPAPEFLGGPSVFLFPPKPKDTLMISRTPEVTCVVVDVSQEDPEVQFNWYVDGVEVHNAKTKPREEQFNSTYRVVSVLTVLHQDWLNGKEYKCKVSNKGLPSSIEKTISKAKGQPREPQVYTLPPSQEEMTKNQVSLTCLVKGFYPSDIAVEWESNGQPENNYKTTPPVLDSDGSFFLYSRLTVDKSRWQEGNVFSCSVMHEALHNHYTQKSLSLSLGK
light: EIVLTQSPATLSLSPGERATLSCRASSSVGYIHWYQQKPGQAPRPIIYTTSNRATGIPARFSGSGSGTDNTLTISSLEPEDSAVYYCQQWSSYPPITFGGGTKLEVKRTVAAPSVFIFPPSDEQLKSGTASVVCLLNNFYPREAKVQWKVDNALQSGNSQESVTEQDSKDSTYSLSSTLTLSKADYEKHKVYACEVTHQGLSSPVTKSFNRGEC
notes: human IgG4 (S228P)/kappa format; also called HMBD-002; HMBD-002-V4C26
For B2, the EC50 was determined as 0.0239 nM in assay [2]; 0.0227 nM in assay [3]; 0.0206 nM in assay [5]; 0.00355 nM in assay [6]; 0.0731 nM in [7]; 0.0186 nM in assay [8]. The EC50 came out at 4.13 nM in assay [9]; 3.74 nM in [10]; 8.94 nM in assay [11]; 0.0305 nM in assay [12]; 0.0197 nM in assay [13]; 0.0348 nM in assay [14]. The binding result with human B7H3 [4] is “no binding (tested: about 3e-8 M)”.

B3: anti-VISTA clone 4M2-C12 IgG1 (antibody)
heavy: not shown
light: DIVITQTPAILSTSPGEKVTMTCRASSSVGYIHWYQQKPGSSPKPWIYATSNLASGVPARFSGSGSGTSNSLTITRVEAEDAATYYCQQWSSYPPITFGGGTKLEVKRTVAAPSVFIFPPSDEQLKSGTASVVCLLNNFYPREAKVQWKVDNALQSGNSQESVTEQDSKDSTYSLSSTLTLSKADYEKHKVYACEVTHQGLSSPVTKSFNRGEC
notes: mouse variable regions on human IgG1/kappa constant regions; also called V4; V4pr
For the molecule B3, in the assay with human B7H3 [15], the binding result is on record as “no binding (tested: about 10^-7.5 M (log M axis))”.

(Values after patent publication US20250313631A1 (HUMMINGBIRD BIOSCIENCE PTE, published 2025).)
